The values that follow come from publication PMC4738263 (Scientific Reports, 2016).

First the molecules themselves.
B1: His-tag-attached wild-type Hydrogenobacter thermophilus cytochrome c552, holo protein [modified: heme c attached (holo protein); heme c attached (holo protein)] [Hydrogenobacter thermophilus] / itself (parent)
chain: NEQLAKQKGCMACHDLKAKKVGPAYADVAKKYAGRKDAVDYLAGKIKKGGSGVWGSVPMPPQNVTDAEAKQLAQWILSIK

In the test the parent is B1. Nature of the test: Ni affinity chromatography (peak areas). Particulars: with itself, protein obtained from E. coli cells, read off a plot.

As for chain 1 A5F M11V, the screen value came to 3%. In addition, the screen value (parent: 27) is 14%. The screen value (parent: 68) came out at 83%.
In the same order, the values of chain 1 Y32F Y41E are 13%, 11% and 76%.
chain 1 A5F M11V Y32F Y41E I76V: the screen value is 6.2%. Besides, the screen value (parent: 27) came out at 1.8%. The screen value (parent: 68) worked out at 92%.
In the same order, the values of chain 1 I76V are 5.5%, 19% and 75%.
